In patent US20190389961A1 (INNATE PHARMA, published 2019):

Assays:
[1] = target: T1, human CD39 (vascular CD39, NTPDase1) expressed at the surface of cells (human, UniProt P49961 1-510); experiment: flow cytometry on Ramos lymphoma cells, first set of experiments
T1 construct: also called huCD39; CHO-huCD39
T1 sequence: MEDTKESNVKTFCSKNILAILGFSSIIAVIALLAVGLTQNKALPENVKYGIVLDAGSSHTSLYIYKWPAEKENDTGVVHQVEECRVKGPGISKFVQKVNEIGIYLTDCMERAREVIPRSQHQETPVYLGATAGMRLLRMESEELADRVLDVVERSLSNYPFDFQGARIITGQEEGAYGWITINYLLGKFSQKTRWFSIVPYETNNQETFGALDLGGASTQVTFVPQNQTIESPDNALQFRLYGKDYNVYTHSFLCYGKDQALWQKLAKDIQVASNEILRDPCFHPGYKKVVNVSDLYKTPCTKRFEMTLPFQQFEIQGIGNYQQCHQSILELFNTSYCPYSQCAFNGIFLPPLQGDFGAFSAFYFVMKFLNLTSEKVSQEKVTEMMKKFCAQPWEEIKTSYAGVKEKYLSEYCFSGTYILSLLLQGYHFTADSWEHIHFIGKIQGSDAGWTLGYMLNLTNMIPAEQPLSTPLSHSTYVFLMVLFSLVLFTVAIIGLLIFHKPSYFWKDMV
Experimental: (§1) Cells were incubated with various concentration of unlabeled anti-CD39 antibody from 30 μg/ml to 5×10-⁴ μg/ml, for 30 minutes at 4° C. After washes, cells were incubated with Goat anti-mouse H+L labeled secondary antibody for 30 min at 4° C.

[2] = target: T2, murine CD39 expressed on CHO cells (murine, UniProt P55772 1-510); experiment: flow cytometry titration on CHO-moCD39 cells
T2 construct: whole, on cells; also called CHO-moCD39; moCD39
T2 sequence (looked up): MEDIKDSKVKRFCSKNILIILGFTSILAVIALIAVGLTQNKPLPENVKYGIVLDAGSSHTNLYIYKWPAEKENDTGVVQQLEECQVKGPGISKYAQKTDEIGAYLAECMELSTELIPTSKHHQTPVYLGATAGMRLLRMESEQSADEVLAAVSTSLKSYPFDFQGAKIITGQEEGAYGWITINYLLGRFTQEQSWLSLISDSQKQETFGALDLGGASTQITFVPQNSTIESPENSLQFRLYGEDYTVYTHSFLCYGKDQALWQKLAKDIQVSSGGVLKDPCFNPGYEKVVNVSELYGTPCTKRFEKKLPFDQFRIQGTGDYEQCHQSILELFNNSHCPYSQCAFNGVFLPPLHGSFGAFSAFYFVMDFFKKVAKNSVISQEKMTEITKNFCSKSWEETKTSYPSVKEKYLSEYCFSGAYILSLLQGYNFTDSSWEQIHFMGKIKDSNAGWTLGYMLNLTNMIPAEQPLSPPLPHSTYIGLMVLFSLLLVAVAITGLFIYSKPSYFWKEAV
Experimental: as §1

human CD39 mutant 19 = target: T3, human CD39 mutant 19 (human, UniProt P49961 1-510); experiment: flow cytometry on Hek-293T cells expressing CD39 mutant 19 (panel M19); unstained (US) median 8,98; antibody concentration not shown
T3 construct: Expressed on Hek-293T cells; also called M19
T3 chain: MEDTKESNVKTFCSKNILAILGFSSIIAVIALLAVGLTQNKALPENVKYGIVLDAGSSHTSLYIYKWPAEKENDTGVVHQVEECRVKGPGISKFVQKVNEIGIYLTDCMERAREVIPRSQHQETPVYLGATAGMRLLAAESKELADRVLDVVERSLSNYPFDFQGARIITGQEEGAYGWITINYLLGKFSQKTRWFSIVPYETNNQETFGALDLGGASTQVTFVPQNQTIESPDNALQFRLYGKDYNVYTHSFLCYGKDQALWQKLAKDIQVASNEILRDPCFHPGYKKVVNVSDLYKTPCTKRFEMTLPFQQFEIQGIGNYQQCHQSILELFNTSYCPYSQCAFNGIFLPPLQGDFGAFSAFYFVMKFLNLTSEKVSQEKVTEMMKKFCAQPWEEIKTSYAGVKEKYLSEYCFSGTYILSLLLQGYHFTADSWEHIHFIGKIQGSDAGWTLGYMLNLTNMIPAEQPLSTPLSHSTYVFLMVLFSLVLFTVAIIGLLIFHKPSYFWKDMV
Experimental: Mutants were transfected in Hek-293T cells, as shown in the table 1, using numbering of SEQ ID NO: 1. […] Mutant 19 includes substitutions at residues R138, M139 and E142.
In order to define the epitopes of the further anti-CD39 antibodies of Example 5, they were tested for loss of binding to the panel of CD39 mutants as described in Example 1 and Table 1. Mutants were transfected in Hek-293T cells, as shown in the table 1, using numbering of SEQ ID NO: 1.Dose-ranges of test antibodies (10-2.5-0.625-0.1563-0.0391-0.0098-0.0024-0.0006 μg/ml) are tested on the 20 generated mutants by flow cytometry.

[3] = target: T4, cynomolgus (Macaca fascicularis) CD39 expressed on CHO cells (cynomolgus (Macaca fascicularis), UniProt A0A7N9DGH8 1-510); experiment: flow cytometry titration on CHO-cyCD39 cells
T4 construct: whole, on cells; also called CHO-cyCD39; cyCD39
T4 sequence: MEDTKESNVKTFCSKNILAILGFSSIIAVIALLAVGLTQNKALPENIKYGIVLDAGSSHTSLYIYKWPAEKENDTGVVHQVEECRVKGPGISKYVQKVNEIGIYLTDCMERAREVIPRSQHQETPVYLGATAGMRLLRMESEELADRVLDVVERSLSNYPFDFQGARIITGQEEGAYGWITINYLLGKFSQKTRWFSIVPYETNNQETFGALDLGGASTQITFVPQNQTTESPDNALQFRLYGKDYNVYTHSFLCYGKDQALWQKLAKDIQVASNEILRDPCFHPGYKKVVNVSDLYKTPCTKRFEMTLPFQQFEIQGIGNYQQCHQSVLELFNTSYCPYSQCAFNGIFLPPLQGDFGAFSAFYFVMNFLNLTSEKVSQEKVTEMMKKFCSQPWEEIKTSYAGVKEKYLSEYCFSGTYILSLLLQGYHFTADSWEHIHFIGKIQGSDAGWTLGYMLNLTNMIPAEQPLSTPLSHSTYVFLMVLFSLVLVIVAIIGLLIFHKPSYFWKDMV
Experimental: as §1

[4] = target: T1, human CD39 (vascular CD39, NTPDase1) …; experiment: flow cytometry titration on CHO-huCD39 cells
Experimental: as §1

- EC50 [1]: 0.16 µg/mL
- binding result [2]: no binding (tested: 30 µg/ml)
- Median : Comp-Alexa Fluor 647-A (human CD39 mutant 19): 24.4
- EC50 (read off the curve) [3]: ~0.4 µg/mL
- EC50 (read off the curve) [4]: ~0.2 µg/mL
B1: antibody I-394 (antibody, V domains shown)
VH: EVQLQQSGPELVKPGASVKMSCKASGYTFTDYNMHWVKQSHGRTLEWIGYIVPLNGGSTFNQKFKGRATLTVNTSSRTAYMELRSLTSEDSAAYYCARGGTRFAYWGQGTLVTVSA
VL: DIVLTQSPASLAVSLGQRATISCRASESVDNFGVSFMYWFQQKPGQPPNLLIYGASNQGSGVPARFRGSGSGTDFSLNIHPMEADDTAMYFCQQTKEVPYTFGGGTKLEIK
notes: Mouse variable regions; Produced in CHO with human IgG1 constant domains carrying L234A/L235E/G237A/A330S/P331S (Kabat EU numbering) and a human Ck constant domain
